Results: patent US20230235074A1 (University of Texas, published 2023)

Columns and labels:
[1] = target: BST2 as expressed endogenously on the surface of human cell lines (B-LCL, MM1, U266, MCF-10A, MCF7, MDA-MB-231, T47D) (human) (UniProt Q10589); assay: flow cytometry on MM1 cells, mAb 1 ug/ml
[2] = target: BST2 as expressed endogenously on the surface of human cell lines (B-LCL, MM1, U266, MCF-10A, MCF7, MDA-MB-231, T47D) (human) (UniProt Q10589); assay: flow cytometry on U266 cells, mAb 1 ug/ml
[3] = target: BST2 as expressed endogenously on the surface of human cell lines (B-LCL, MM1, U266, MCF-10A, MCF7, MDA-MB-231, T47D) (human) (UniProt Q10589); assay: flow cytometry on MCF7 cells, mAb 1 ug/ml
[4] = target: BST2 as expressed endogenously on the surface of human cell lines (B-LCL, MM1, U266, MCF-10A, MCF7, MDA-MB-231, T47D) (human) (UniProt Q10589); assay: flow cytometry on T47D cells, mAb 1 ug/ml
[5] = target: BST2 as expressed endogenously on the surface of human cell lines (B-LCL, MM1, U266, MCF-10A, MCF7, MDA-MB-231, T47D) (human) (UniProt Q10589); assay: flow cytometry on B-LCL cells, mAb 1 ug/ml
[6] = target: BST2 as expressed endogenously on the surface of human cell lines (B-LCL, MM1, U266, MCF-10A, MCF7, MDA-MB-231, T47D) (human) (UniProt Q10589); assay: flow cytometry on MCF-10A cells, mAb 1 ug/ml
[7] = target: BST2 as expressed endogenously on the surface of human cell lines (B-LCL, MM1, U266, MCF-10A, MCF7, MDA-MB-231, T47D) (human) (UniProt Q10589); assay: flow cytometry on MDA-MB-231 cells, mAb 1 ug/ml
[8] = target: BST2 as expressed endogenously on the surface of human cell lines (B-LCL, MM1, U266, MCF-10A, MCF7, MDA-MB-231, T47D) (human) (UniProt Q10589); assay: flow cytometry on MM1 cells, mAb not preincubated
[9] = target: BST2 medium isoform (BST2-H, 158 amino acids) expressed on HEK293 transfectants; assay: flow cytometry, mAb 1 ug/ml on HEK293-medium cells
[10] = target: BST2 as expressed endogenously on the surface of human cell lines (B-LCL, MM1, U266, MCF-10A, MCF7, MDA-MB-231, T47D) (human) (UniProt Q10589); assay: flow cytometry on MM1 cells, mAb preincubated with Spartan protein
[11] = target: BST2 as expressed endogenously on the surface of human cell lines (B-LCL, MM1, U266, MCF-10A, MCF7, MDA-MB-231, T47D) (human) (UniProt Q10589); assay: flow cytometry on MM1 cells, mAb preincubated with recombinant BST2 protein as competitor
[12] = target: BST2 long isoform (BST2-D, full length BST2, 180 amino acids) expressed on HEK293 transfectants (human) (UniProt Q10589); assay: flow cytometry, HEK293 long transfectant, 1 ug/ml antibody, APC-conjugated secondary antibody
Sequence of BST2 long isoform (BST2-D, full length BST2, 180 amino acids) expressed on HEK293 transfectants (human) (Q10589 1-161 limits assumed): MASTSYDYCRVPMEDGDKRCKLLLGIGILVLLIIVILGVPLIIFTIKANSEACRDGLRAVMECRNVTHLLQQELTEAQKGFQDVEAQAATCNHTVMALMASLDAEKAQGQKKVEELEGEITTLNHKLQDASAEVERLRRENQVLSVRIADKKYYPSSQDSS

[13] = target: BST2 as expressed endogenously on the surface of human cell lines (B-LCL, MM1, U266, MCF-10A, MCF7, MDA-MB-231, T47D) (human) (UniProt Q10589); assay: flow cytometry, MCF7 cells, APC-conjugated secondary antibody (the text prints 34.7% for the same panel)
[14] = target: BST2 in human tissue microarray cores; assay: immunohistochemistry, tissue microarray #72070, antigen retrieval H1; Placenta: 0 positive of 1 tested specimen
Sequence of BST2 in human tissue microarray cores (chain, as listed by the source limits assumed): as the sequence (Q10589 1-161 limits assumed) above

[15] = target: BST2 as expressed endogenously on the surface of human cell lines (B-LCL, MM1, U266, MCF-10A, MCF7, MDA-MB-231, T47D) (human) (UniProt Q10589); assay: flow cytometry dot plot, T47D-WT cells, 26F8 at 2 ug/ml and APC-conjugated secondary antibody; Q4 (unstained) 2.71
[16] = target: BST2 in human tissue microarray cores; assay: immunohistochemistry, tissue microarray #72070, antigen retrieval H1; BIDC stroma: 0 positive of 40 tested specimens
[17] = target: BST2 in human tissue microarray cores; assay: immunohistochemistry, tissue microarray #72070, antigen retrieval H1; Breast stroma: 0 positive of 8 tested specimens
[18] = target: BST2 in human tissue microarray cores; assay: immunohistochemistry, tissue microarray #72070, antigen retrieval H1; Normal breast: 0 positive of 8 tested specimens
[19] = target: BST2 in human tissue microarray cores; assay: immunohistochemistry, tissue microarray #72070, antigen retrieval H1; Placenta stroma: 0 positive of 1 tested specimen
[20] = target: BST2 in human tissue microarray cores; assay: immunohistochemistry, tissue microarray #78070 (normal tissues), antigen retrieval H1; Parenchymal: 0 positive of 7 tested
[21] = target: BST2 as expressed endogenously on the surface of human cell lines (B-LCL, MM1, U266, MCF-10A, MCF7, MDA-MB-231, T47D) (human) (UniProt Q10589); assay: flow cytometry dot plot, T47D-NS (non-silencing transduction) cells, 26F8 at 2 ug/ml and APC-conjugated secondary antibody
[22] = target: Recombinant human BST2 protein (Catalog number 13370-H07H, Sino Biological) (human) (UniProt Q10589); assay: BLI (Octet RED384), mAb 5 ug/ml captured on anti-mouse IgG Fc (AMC) biosensors, BST2 protein 15.625-1000 nM, 1:1 model, global fit
Sequence of Recombinant human BST2 protein (Catalog number 13370-H07H, Sino Biological) (human) (Q10589 49-161 limits assumed): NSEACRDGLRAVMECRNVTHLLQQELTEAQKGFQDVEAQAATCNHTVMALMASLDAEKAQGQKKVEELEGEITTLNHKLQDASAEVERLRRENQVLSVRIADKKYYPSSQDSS

[23] = target: BST2 as expressed endogenously on the surface of human cell lines (B-LCL, MM1, U266, MCF-10A, MCF7, MDA-MB-231, T47D) (human) (UniProt Q10589); assay: flow cytometry dot plot, T47D cells transduced with BST2-silencing shRNA, 26F8 at 2 ug/ml and APC-conjugated secondary antibody
[24] = target: BST2 as expressed endogenously on the surface of human cell lines (B-LCL, MM1, U266, MCF-10A, MCF7, MDA-MB-231, T47D) (human) (UniProt Q10589); assay: flow cytometry dot plot, T47D-NS (non-silencing transduction) cells, 26F8 at 2 ug/ml and APC-conjugated secondary antibody; Q3 6.94, Q4 21.4
[25] = target: BST2 as expressed endogenously on the surface of human cell lines (B-LCL, MM1, U266, MCF-10A, MCF7, MDA-MB-231, T47D) (human) (UniProt Q10589); assay: flow cytometry dot plot, T47D cells transduced with BST2-silencing shRNA, 26F8 at 2 ug/ml and APC-conjugated secondary antibody; Q3 58.1, Q4 26.6
[26] = target: T1, BST2 long isoform (BST2-D, full length BST2, 180 amino acids) expressed on HEK293 transfectants (human, UniProt Q10589 1-161); assay: flow cytometry, hybridoma supernatant on HEK293-long cells
T1 construct: also called HEK293-long; HEK293 WT-BST2
T1 sequence (Q10589 1-161 limits assumed): as the sequence (Q10589 1-161 limits assumed) above
Procedure: For flow cytometry assays, cells were detached using 0.05% trypsin-EDTA, counted, washed and resuspend with FACS Buffer (PBS, 2% FBS, 2 mM EDTA). 2×10⁵ cells in 100 ul/well were placed in U-bottom 96-well plate and centrifuged (1000 RPM/3 min/4° C.). The buffer was discarded and 100 ul of the previously collected supernatants with selected monoclonal antibodies were added to the wells and incubated on ice for 30 minutes. After incubation, the plate was washed three times with FACS buffer and 50 ul of diluted (1/250) secondary antibody (Donkey anti-mouse Allophycocyanin (APC) conjugated) were added to the wells and incubated on ice for 20 minutes protected from light. The final wash was repeated 4 times, and the samples were transferred and analyzed at the South Campus Flow Cytometry & Cell Sorting Core Laboratory at MD Anderson Cancer Center. FACS data were analyzed with FlowJo™ Software—for Windows (Version 10.6.1. Ashland, Oreg.: Becton, Dickinson and Company; 2020).

[27] = target: T2, BST2 long isoform peptide (BST2-D peptide), positions 133-156 (human); assay: ELISA dilution assay, plate coated with BST2 peptide alone, hybridoma supernatant undiluted and 1/15, 1/225, 1/3375, OD 450 nm (axis unlabelled on the sheet)
T2 construct: Synthetic 24-mer; the free peptide (not KLH conjugated) coated the ELISA plates; also called BST2-Long (D) peptide; BST2 peptide
T2 peptide: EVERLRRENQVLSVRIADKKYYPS
Procedure: FIG. 5. Dilution assay. 26 positive clones were tested at serial dilutions as described under methods. Sixteen clones with the highest OD450 nm signal (those with squares around their names) were selected for further characterization. LA1-LA16 are clones picked at the first round of colony pickup; BM1-BM10 clones picked at the second round of colony pickup. PC is the positive control using anti-BST2 mAb (Clone 26F8) 1 ug/ml which recognizes all isoforms. Plates were coated with BST2 peptide alone.
To select the hybridomas capable of producing specific monoclonal antibodies against the BST2-D peptide, ELISA was performed. ELISA plates were coated with a 100 ul coating buffer, containing the BST2-D peptide in a concentration of 1 ug/ml, and incubated overnight at 4° C. Next day, ELISA plates were washed three times with PBST (PBS containing 0.05% v/v Tween®-20) and blocked with 100 ul of blocking buffer (PBS, 1% w/v BSA). After 1-hour blocking at room temperature, 50 ul supernatant from each of the 563 colonies were added to individual wells as the primary antibodies. Anti-BST2 mAb (Clone 26F8) [eBioscience] was used as a positive control and blank wells with secondary antibody only were performed in triplicates. Incubation proceeded for 1 hour followed by three washes. […] The reaction was stopped with H₂SO₄ 0.2N and the OD absorbance values were read at 450 nm. […]

Sequence of BST2 as expressed endogenously on the surface of human cell lines (B-LCL, MM1, U266, MCF-10A, MCF7, MDA-MB-231, T47D) (human) (Q10589 1-161, stated change not applied): as the sequence (Q10589 1-161 limits assumed) above

## anti-BST2 monoclonal antibody clone 26F8 (eBioscience)
[1]
  percentage of cell staining: 99.6%
[2]
  percentage of cell staining: 97.1%
[3]
  percentage of cell staining: 34.7%
[4]
  percentage of cell staining: 96.6%
[5]
  percentage of cell staining: 99.7%
[6]
  percentage of cell staining: 27.7%
[7]
  percentage of cell staining: 28.4%
[8]
  percentage of stained cells: 98.2%
[9]
  percentage of cells stained: 96.7%
[10]
  percentage of stained cells: 98.1%
[11]
  percentage of stained cells: 2.6%
[12]
  percent of cells stained: 98.7%
[13]
  percent of cells stained: 37.7%
[14]
  detectable rate (% of tested specimens positive): 0%
[15]
  percent of cells in quadrant Q1 (APC positive, GFP negative): 97.2%
[16]
  detectable rate (% of tested specimens positive): 0%
[17]
  detectable rate (% of tested specimens positive): 0%
[18]
  detectable rate (% of tested specimens positive): 0%
[19]
  detectable rate (% of tested specimens positive): 0%
[20]
  detectable rate (% of tested specimens positive): 0%
[21]
  percent of cells in quadrant Q1 (APC positive, GFP negative): 13.1%
[22]
  Kd: 34.2 nM
  koff: 0.00132 s⁻¹
  kon: 38600 M⁻¹ s⁻¹
[23]
  percent of cells in quadrant Q1 (APC positive, GFP negative): 6.09%
[24]
  percent of cells in quadrant Q2 (APC positive, GFP positive): 58.5%
[25]
  percent of cells in quadrant Q2 (APC positive, GFP positive): 9.27%

B1: LA1 antibody (antibody, IgG1, V domains shown)
VH: EVQLQQSGPELVKPGASVKISCKTSGYTFTEDTMHWVKQSHGKSLEWIGGINPNKGGTSYNQKFKDKATLTVDKSSSTAYMELRSLTSEDSAVYYCATLVDYWGQGTTLTVSS
VL: DIVMTQSQKFMSTSVGDRVSVTCKASQNVGTNVAWYQQKPGQSPKALIHSASYRYSGVPDRFTGSGSGTDFTLTISNVQSEDLAEYFCQQYNSYPLTFGAGTKLELK
notes: Mouse hybridoma antibody, isotype IgG1, kappa; Tested as hybridoma supernatant
[26]
  percentage of cells stained: 70.9%
[27]
  binding result: binds

B2: BM7 antibody (antibody, IgG1, V domains shown)
VH: QVTLKESGPGILKPSQTLSLTCSFSGFSLSTSGVGVGWIRQPSGKGLEWLAHIWWDDDEYYNPSLKSQLTISKDTSRNQVFLKITSVDTSDTATYYCARRYYGDAMDYWGQGTAVTVSS
VL: DVVMTQTPVSLPVSLGDQASISCRSTQSLVHSNGHTYLHWYLQKPGQSPKLLIYKVSNRFSGVPDRFSGTGSGTDFTLKISRVEAEDLGVYFCSQSTHVPYTFGGGTKLEIK
notes: Tested as hybridoma supernatant
[26]
  percentage of cells stained: 39.8%
